Measurements: US20140072613A1, “Compositions and Methods for Treating Cutaneous Scarring” (priority 2012, published 2014)

How the values were obtained:
Assay in all cases: biochemical
Format in all cases: biochemical
266 human kinases [1] = molecular target: 266 human kinases (Homo sapiens, UniProt P45984); details: JNK2α2(h); 100 μM
Method in brief: (§1)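 Read-out by scintillation counting of radiolabelled, positively charged substrate bound to negatively charged filter; activity normalised to 100% control. Phosphate transferred from radiolabelled ATP.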

266 human kinases [2] = molecular target: 266 human kinases (Homo sapiens, UniProt P00519); details: Abl(h); 100 μM
Method in brief: as §1

266 human kinases [3] = molecular target: 266 human kinases (Homo sapiens, UniProt O14965); details: Aurora-A(h); 100 μM
Method in brief: as §1

266 human kinases [4] = molecular target: T1, 266 human kinases (Homo sapiens, UniProt Q9HBY8); details: SGK2(h); 100 μM
T1 sequence (Q9HBY8 whole entry, looked up): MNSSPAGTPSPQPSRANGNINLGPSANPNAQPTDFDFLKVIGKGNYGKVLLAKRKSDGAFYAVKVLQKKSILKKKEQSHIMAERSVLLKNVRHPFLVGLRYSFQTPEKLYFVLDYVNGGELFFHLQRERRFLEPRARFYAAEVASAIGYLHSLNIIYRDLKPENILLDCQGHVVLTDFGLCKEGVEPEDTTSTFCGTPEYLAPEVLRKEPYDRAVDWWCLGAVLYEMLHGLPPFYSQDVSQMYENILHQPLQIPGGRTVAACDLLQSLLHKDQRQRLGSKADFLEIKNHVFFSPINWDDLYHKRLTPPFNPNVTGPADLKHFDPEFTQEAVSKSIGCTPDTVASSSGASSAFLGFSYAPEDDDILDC
Method in brief: as §1

266 human kinases [5] = molecular target: 266 human kinases (Homo sapiens, UniProt P57059); details: SIK(h); 100 μM
Method in brief: as §1

266 human kinases [6] = molecular target: 266 human kinases (Homo sapiens, UniProt Q02750); details: MEK1(h); 100 μM
Method in brief: as §1

266 human kinases [7] = molecular target: 266 human kinases (Homo sapiens, UniProt P10721, V654A); details: cKit(V654A)(h); 100 μM
Method in brief: as §1

266 human kinases [8] = molecular target: T2, 266 human kinases (Homo sapiens, UniProt P29320); details: EphA3(h); 100 μM
T2 sequence (P29320 21-983): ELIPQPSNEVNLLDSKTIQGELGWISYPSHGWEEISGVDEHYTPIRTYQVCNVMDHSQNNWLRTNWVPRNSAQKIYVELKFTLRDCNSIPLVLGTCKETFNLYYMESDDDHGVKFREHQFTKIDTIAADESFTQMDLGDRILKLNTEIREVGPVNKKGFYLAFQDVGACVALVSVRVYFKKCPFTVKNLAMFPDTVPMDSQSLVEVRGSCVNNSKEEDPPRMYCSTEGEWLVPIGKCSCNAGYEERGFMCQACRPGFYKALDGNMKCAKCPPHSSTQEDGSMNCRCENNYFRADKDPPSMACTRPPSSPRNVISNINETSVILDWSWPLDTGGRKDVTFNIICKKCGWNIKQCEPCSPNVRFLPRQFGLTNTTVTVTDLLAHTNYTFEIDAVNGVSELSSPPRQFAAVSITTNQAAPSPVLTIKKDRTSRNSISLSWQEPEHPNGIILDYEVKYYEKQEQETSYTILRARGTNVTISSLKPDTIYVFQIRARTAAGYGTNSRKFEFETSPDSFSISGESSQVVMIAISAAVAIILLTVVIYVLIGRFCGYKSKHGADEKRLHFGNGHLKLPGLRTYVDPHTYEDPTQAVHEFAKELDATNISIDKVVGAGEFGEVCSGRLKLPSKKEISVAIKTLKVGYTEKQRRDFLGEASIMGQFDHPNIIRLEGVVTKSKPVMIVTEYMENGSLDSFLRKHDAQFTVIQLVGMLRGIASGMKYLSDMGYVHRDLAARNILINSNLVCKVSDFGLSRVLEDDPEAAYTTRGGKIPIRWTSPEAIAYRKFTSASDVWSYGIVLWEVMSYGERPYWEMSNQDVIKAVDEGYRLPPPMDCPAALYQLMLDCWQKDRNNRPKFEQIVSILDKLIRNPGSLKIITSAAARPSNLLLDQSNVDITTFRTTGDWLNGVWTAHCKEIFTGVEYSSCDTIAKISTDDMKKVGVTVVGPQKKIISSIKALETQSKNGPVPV
Method in brief: as §1

266 human kinases [9] = molecular target: T3, 266 human kinases (Homo sapiens, UniProt Q8IWQ3); details: BrSK2(h); 100 μM
T3 sequence (Q8IWQ3 1-736): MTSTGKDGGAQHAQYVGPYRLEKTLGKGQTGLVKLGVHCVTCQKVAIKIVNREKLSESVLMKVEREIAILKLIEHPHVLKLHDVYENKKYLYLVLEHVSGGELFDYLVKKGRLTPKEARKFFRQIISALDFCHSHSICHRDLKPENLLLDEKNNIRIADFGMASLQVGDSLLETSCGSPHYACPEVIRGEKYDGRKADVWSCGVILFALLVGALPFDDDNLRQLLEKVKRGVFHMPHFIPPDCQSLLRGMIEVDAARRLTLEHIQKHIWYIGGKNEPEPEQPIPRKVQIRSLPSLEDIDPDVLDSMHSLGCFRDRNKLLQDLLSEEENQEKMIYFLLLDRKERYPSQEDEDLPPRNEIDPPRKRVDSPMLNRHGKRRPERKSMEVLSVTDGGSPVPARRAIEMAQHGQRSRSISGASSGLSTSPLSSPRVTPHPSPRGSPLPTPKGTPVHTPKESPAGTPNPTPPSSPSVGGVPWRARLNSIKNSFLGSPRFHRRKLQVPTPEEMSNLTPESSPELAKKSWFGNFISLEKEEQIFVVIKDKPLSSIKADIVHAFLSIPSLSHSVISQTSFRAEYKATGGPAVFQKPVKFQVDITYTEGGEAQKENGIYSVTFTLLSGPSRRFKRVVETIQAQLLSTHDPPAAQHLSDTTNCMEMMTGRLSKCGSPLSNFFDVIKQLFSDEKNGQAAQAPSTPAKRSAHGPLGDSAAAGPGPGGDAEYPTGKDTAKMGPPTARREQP
Method in brief: as §1

266 human kinases [10] = molecular target: 266 human kinases (Homo sapiens, UniProt O75914); details: PAK3(h); 100 μM
Method in brief: as §1

266 human kinases [11] = molecular target: 266 human kinases (Homo sapiens, UniProt P34947); details: GRK5(h); 100 μM
Method in brief: as §1

Sequence of 266 human kinases (Homo sapiens, UniProt O14965) (O14965 whole entry): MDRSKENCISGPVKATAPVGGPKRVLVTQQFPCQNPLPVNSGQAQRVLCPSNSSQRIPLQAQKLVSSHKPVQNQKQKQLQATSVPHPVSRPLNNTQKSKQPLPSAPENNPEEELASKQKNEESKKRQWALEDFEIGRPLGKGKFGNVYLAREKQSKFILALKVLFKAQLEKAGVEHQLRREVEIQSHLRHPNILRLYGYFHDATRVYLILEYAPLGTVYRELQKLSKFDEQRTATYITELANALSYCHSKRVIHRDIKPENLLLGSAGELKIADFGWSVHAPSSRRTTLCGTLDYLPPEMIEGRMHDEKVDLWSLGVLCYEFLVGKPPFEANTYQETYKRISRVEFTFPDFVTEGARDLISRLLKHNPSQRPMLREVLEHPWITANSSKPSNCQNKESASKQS
Sequence of 266 human kinases (Homo sapiens, UniProt P34947) (P34947 whole entry): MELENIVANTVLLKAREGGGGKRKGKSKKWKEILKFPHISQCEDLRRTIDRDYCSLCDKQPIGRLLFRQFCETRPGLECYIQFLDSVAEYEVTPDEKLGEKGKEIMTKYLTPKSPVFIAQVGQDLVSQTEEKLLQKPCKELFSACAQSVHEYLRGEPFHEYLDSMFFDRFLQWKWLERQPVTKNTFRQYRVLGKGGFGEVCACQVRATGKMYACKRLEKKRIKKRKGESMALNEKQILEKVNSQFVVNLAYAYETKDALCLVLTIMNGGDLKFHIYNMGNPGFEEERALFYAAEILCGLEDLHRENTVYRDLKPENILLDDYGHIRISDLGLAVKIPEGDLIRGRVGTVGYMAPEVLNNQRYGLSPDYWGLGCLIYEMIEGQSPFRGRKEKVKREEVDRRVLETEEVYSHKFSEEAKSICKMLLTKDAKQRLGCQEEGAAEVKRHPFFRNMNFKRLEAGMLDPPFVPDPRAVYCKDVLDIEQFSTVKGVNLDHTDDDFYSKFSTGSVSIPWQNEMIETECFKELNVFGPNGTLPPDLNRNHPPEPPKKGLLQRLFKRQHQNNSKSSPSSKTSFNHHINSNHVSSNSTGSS
Sequence of 266 human kinases (Homo sapiens, UniProt P00519) (P00519 whole entry): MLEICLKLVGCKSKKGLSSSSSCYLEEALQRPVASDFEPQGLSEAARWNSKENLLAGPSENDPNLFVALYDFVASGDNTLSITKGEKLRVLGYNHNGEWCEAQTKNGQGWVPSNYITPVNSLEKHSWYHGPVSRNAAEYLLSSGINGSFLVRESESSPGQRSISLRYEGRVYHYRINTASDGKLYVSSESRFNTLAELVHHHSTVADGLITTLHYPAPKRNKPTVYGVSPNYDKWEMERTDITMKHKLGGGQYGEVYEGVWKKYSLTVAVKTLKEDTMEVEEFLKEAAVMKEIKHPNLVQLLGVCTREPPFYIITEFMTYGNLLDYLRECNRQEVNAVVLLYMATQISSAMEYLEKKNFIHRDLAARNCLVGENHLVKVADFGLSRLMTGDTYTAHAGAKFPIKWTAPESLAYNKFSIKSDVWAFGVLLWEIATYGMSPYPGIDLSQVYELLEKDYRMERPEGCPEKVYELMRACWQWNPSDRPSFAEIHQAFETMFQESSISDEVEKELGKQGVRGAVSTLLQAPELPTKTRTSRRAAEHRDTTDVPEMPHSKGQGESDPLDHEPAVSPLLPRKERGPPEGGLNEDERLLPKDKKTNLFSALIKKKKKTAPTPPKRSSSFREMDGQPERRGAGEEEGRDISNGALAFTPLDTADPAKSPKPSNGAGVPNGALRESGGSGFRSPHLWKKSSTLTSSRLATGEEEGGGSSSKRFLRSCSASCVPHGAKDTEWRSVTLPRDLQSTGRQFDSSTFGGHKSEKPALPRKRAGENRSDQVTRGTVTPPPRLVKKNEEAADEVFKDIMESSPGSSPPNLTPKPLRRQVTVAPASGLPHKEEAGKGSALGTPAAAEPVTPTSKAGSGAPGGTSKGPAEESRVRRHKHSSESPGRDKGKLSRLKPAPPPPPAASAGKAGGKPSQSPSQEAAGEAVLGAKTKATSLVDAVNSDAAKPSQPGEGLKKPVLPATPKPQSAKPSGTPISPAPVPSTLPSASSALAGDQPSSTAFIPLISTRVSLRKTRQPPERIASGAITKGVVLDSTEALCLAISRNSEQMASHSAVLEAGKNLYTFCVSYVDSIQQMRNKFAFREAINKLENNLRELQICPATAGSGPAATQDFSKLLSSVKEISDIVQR
Sequence of 266 human kinases (Homo sapiens, UniProt P57059) (P57059 whole entry): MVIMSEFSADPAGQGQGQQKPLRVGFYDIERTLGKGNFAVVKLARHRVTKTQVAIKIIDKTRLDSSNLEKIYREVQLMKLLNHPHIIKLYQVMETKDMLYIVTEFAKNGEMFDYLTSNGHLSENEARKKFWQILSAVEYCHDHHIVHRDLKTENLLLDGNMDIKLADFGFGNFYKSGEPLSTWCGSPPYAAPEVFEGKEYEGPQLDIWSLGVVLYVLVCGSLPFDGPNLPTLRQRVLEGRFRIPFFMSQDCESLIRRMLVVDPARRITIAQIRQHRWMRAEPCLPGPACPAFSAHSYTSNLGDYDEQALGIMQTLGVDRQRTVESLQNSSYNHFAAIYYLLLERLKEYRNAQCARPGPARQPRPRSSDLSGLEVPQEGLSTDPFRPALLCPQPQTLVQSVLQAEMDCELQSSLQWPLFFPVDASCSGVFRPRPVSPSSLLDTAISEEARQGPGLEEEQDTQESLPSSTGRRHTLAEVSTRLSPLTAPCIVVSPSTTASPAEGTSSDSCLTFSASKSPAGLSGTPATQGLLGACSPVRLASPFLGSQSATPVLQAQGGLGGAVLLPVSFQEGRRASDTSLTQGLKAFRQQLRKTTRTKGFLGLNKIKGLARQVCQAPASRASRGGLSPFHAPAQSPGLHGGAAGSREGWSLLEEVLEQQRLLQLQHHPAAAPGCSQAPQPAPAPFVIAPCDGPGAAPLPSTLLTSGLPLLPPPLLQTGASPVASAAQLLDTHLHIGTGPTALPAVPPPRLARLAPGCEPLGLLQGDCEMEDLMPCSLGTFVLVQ
Sequence of 266 human kinases (Homo sapiens, UniProt O75914) (O75914 whole entry): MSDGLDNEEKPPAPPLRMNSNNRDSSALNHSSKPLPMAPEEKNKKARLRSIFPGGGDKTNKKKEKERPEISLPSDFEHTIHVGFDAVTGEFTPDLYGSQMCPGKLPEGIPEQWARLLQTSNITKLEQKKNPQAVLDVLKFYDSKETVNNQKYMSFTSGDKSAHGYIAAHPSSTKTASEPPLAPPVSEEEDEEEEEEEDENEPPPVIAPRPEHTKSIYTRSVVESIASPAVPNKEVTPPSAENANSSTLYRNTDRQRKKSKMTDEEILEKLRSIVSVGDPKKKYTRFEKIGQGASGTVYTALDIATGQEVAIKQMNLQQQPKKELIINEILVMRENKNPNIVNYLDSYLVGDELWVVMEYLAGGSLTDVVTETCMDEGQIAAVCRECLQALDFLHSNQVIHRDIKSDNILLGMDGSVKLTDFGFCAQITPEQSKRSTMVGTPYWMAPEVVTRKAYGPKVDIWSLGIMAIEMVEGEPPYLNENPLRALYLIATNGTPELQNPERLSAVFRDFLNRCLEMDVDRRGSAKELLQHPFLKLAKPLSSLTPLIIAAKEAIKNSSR

Sequence: HRRIKAWLKKIKALARQLGVAA (mammal) [MMI-0500]
- % activity (266 human kinases [1]): 81%
- % activity (266 human kinases [2]): 16%
- % activity (266 human kinases [3]): 110%
- % activity (266 human kinases [4]): −1%
- % activity (266 human kinases [5]): 40%
- % activity (266 human kinases [6]): 21%
- % activity (266 human kinases [7]): 223%
- % activity (266 human kinases [8]): 33%
- % activity (266 human kinases [9]): 84%

Sequence: YARAAARQARAKALNRQLGVA (mammal) [MMI-0200]
- % activity (266 human kinases [10]): 50%
- % activity (266 human kinases [11]): 135%
